# Assay: soluble on expression in E. coli; label from the status in PepcDB or PDB records
row,Sequence,soluble on expression in E. coli
1,MPVTRPAKINTYTRIIDASLALFNEEGERNISTNHIAAHLGISPGNLYYHFRNKDEIIVQLFKRYSEALLAYLNEAVLPSDVEDSINYMAGIYDVMWEYRFLFSDVNTLLARSAELLGEHNTFTQAKVSPLLVNLLTQLNGLNIIQADQTAMNDLAVNMWMVTKYWFDFDSSLRGRTKLTEDSKARGIRRTLSLLRPYLLPEHRKKYDRKIGNGNP,soluble
2,MSLKTLATIGDNCVDIYPQLNKAFSGGNAVNVAVYCTRYGIQPGCITWVGDDDYGTKLKQDLARMGVDISHVHTKHGVTAQTQVELHDNDRVFGDYTEGVMADFALSEEDYAWLAQYDIVHAAIWGHAEDAFPQLHAAGKLTAFDFSDKWDSPLWQTLVPHLDFAFASAPQEDEALRLKMKAIVARGAGTVIVTLGENGSIAWDGAQFWRQAPEPVTVIDTMGAGDSFIAGFLCGWSAGMTLPQAMAQGTACAAKTIQYHGAEGHHHHHH,soluble
3,MSLMAVNVNTNVAAMTAQRYLTGATNAQQTSMERLSSGFKINSAKDDAAGLQISNRLNVQSRGLDVAVRNANDGISIAQTAEGAMNETTNILQRMRDLSLQSANGSNSKSERVAIQEEITALNDELNRIAETTSFGGNKLLNGTFSTKSFQIGADNGEAVMLTLKDMRSDNRMMGGTSYVAAEGKDKDWKVQAGANDITFTLKDIDGNDQTITVNAKEGDDIEEVATYINGQTDMVKASVNEKGQLQIFAGNNKVTGDVAFSGGLAGALNMQAGTAETVDTIDVTSVGGAQQSVAVIDSALKYVDSHRAELGAFQNRFNHAISNLDNINENVNASKSRIKDTDFAKETTALTKSQILSQASSSVLAQAKQAPNAALSLLG,soluble
4,MNTSELETLIRTILSEQLTTPAQTPVQPQGKGIFQSVSEAIDAAHQAFLRYQQCPLKTRSAIISAMRQELTPLLAPLAEESANETGMGNKEDKFLKNKAALDNTPGVEDLTTTALTGDGGMVLFEYSPFGVIGSVAPSTNPTETIINNSISMLAAGNSIYFSPHPGAKKVSLKLISLIEEIAFRCCGIRNLVVTVAEPTFEATQQMMAHPRIAVLAITGGPGIVAMGMKSGKKVIGAGAGNPPCIVDETADLVKAAEDIINGASFDYNLPCIAEKSLIVVESVAERLVQQMQTFGALLLSPADTDKLRAVCLPEGQANKKLVGKSPSAMLEAAGIAVPAKAPRLLIALVNADDPWVTSEQLMPMLPVVKVSDFDSALALALKVEEGLHHTAIMHSQNVSRLNLAARTLQTSIFVKNGPSYAGIGVGGEGFTTFTIATPTGEGTTSARTFARSRRCVLTNGFSIR,not soluble
5,MAHHHHHHMTELLSAGEVQHPCGWAFAFPFVKRVPPAKLVRLLGTATLLDRIRENDPTLRSVRLDYELLPREEIMQALLGNNTISSVVIARVIPRNSTGTDFARFLESLYHLPLRSVQVQDGEKLPSSYLNHLLYLVEYCSGVGKACKWTDGKCYAGADLNTGNTTTEINDAEEFNGNNSREDVDSEVLDYKRGAVLEFVDFSGCRLTVRQAQWLGDILFHRRCTLRHVNACECRLGNGGVRALLRRVNTSPRLKAASIAEGSVVPLDMIELRWNGVTEDESIRNFVDVVERSPDCWTCMTVYGNYISPHMYTRCEAQVVKAKRLMEEERLKRREIPTNVEVAQPDGRLSSEKGTSCSPRRYFVDLLTSVAGEVDFVCPSLRAVSSLLHEEP,not soluble
6,MKQFKRGIERDGTGFVVLMAEEAEDMWHIYNLIRIGDIIKASTIRKVVSETSTGTTSSQRVHTMLTVSVESIDFDPGAQELHLKGRNIEENDIVKLGAYHTIDLEPNRKFTLQKTEWDSIDLERLNLALDPAQAADVAAVVLHEGLANVCLITPAMTLTRAKIDMTIPRKRKGFTSQHEKGLEKFYEAVSTAFMRHVNLQVVKCVIVASRGFVKDAFMQHLIAHADANGKKFTTEQRAKFMLTHSSSGFKHALKEVLETPQVALRLADTKAQGEVKALNQFLELMSTEPDRAFYGFNHVNRANQELAIETLLVADSLFRAQDIETRRKYVRLVESVREQNGKVHIFSSMHVSGEQLAQLTGCAAILRFPMPDLDDEPMDEN,not soluble
7,DFEVGDKIRILATLEDGWLEGSLKGRTGIFPYRFVKLCPDTRVEETMALPQEGSLARIPETSLDCLENTLGVEEQRHETSDHEAEEPDCIISEAPTSPLGHLTSEYDTDRNSYQDEDTAGGPPRSPGVEWEMPLATDSPTSDPTEVVNGISSQPQVPFHPNLQKSQYYSTVGGSHPHSEQYPDLLPLEARTRDYASLPPKRMYSQLKTLQKPVLPLYRGSSVSASRVVKPRQSSPQLHNLASYTKKHHTSSVYSISERLEMKPGPQAQGLVMEAATHSQGDGSTDLDSKLTQQLIEFEKSLAGPGTEPDKILRHFSIMDFNSEKDIVRGSSKLITEQELPERRKALRPPPPRPCTPVSTSPHLLVDQNLKPAPPLVVRPSRPAPLPPSAQQRTNAVSPKLLSRHRPTCETLEKEGPGHMGRSLDQTSPCPLVLVRIEEMERDLDMYSRAQEELNLMLEEKQDESSRAETLEDLKFCESNIESLNMELQQLREMTLLSSQSSSLVAPSGSVSAENPEQRMLEKRAKVIEELLQTERDYIRDLEMCIERIMVPMQQAQVPNIDFEGLFGNMQMVIKVSKQLLAALEISDAVGPVFLGHRDELEGTYKIYCQNHDEAIALLEIYEKDEKIQKHLQDSLADLKSLYNEWGCTNYINLGSFLIKPVQRVMRYPLLLMELLNSTPESHPDKVPLTNAVLAVKEINVNINEYKRRKDLVLKYRKGDEDSLMEKISKLNIHSIIKKSNRVSSHLKHLTGFAPQIKDEVFEETEKNFRMQERLIKSFIRDLSLYLQHIRESACVKVVAAVSMWDVCMERGHRDLEQFERVHRYISDQLFTNFNGQKS,soluble
8,MNPTDWIDTGAVPPRPLPATVDAALAYLSEALGHPVYAHWTLARVKRRYGSLSDAKAAQPTVLKLLLAHDGAVEYWERGRLRTVPADQAPGPAMVLARLLHTHRRRFRLAASSGNAAAVPAASEAAGLVAAPWLAAYSHAEHTWLARAGRFAQLHAATNTLGVANDAQALALFLRDRTGRSPHTLRAYGAELRRLMRWCGVHEVGPLSDLTRQQLLAYRHTLQHGEPGTENASPQLSEATCTRALAVVASLYGYWYDTGYLQANPAAGLSAGSRARAGFAPTRLIPPALLDACDAWLDASAVDASLPALRRRAIWALYRYAGARLAELVWSDEAALPRLEAEVPGHWTLYVCGKGRKVRAIPLPVPCVAVLRAYRHARGLPPEPPAHEALPVIHGHKGEALQSAGLYREVKAIFAAVADGLQARDPAQALLLRAASPHWLRHAYARTLVVDHQVPLPAAQALLGHASVQTTAAYARTDLTQLRAFVDATFADDAPLEHHHHHH,not soluble
9,MENMENDENIVVGPKPFYPIEEGSAGTQLRKYMERYAKLGAIAFTNAVTGVDYSYAEYLEKSCCLGKALQNYGLVVDGRIALCSENCEEFFIPVIAGLFIGVGVAPTNEIYTLRELVHSLGISKPTIVFSSKKGLDKVITVQKTVTTIKTIVILDSKVDYRGYQCLDTFIKRNTPPGFQASSFKTVEVDRKEQVALIMNSSGSTGLPKGVQLTHENTVTRFSHARDPIYGNQVSPGTAVLTVVPFHHGFGMFTTLGYLICGFRVVMLTKFDEETFLKTLQDYKCTSVILVPTLFAILNKSELLNKYDLSNLVEIASGGAPLSKEVGEAVARRFNLPGVRQGYGLTETTSAIIITPEGDDKPGASGKVVPLFKAKVIDLDTKKSLGPNRRGEVCVKGPMLMKGYVNNPEATKELIDEEGWLHTGDIGYYDEEKHFFIVDRLKSLIKYKGYQVPPAELESVLLQHPSIFDAGVAGVPDPVAGELPGAVVVLESGKNMTEKEVMDYVASQVSNAKRLRGGVRFVDEVPKGLTGKIDGRAIREILKKPVAKM,soluble
10,MAQREWVEKDFYQELGVSSDASPEEIKRAYRKLARDLHPDANPGNPAAGERFKAVSEAHNVLSDPAKRKEYDETRRLFAGGGFGGRRFDSGFGGGFGGFGVGGDGAEFNLNDLFDAASRTGGTTIGDLFGGLFGRGGSARPSRPRRGNDLETETELDFVEAAKGVAMPLRLTSPAPCTNCHGSGARPGTSPKVCPTCNGSGVINRNQGAFGFSEPCTDCRGSGSIIEHPCEECKGTGVTTRTRTINVRIPPGVEDGQRIRLAGQGEAGLRGAPSGDLYVTVHVRPDKIFGRDGDDLTVTVPVSFTELALGSTLSVPTLDGTVGVRVPKGTADGRILRVRGRGVPKRSGGSGDLLVTVKVAVPPNLAGAAQEALEAYAAAERSSGFNPRAGWAGNR,soluble
11,MSLAQTNQAEVGEPAPNFTLQAADGDEHSLADFEGQYVVLEWLNFGCPFVGKHYGSGNMQRLQDTYTDEGVVWLSIVSSAPGKQGYYPPGEMVEQKKKHDGNMTAILMDPEGEVGKTYDATVTPHMYVISPEGELLYRGGIDDKPTTDEADIEGATNYVRMALDAAMNGEEVRPKRAEPYGCTIKYASKEGHHHHHH,soluble
12,MVDIEALQKAIGVTSLSYDEDDDDDDENDAFYSSSHRVSHNYNQPPLPPIPTRDDMSNYSSSRNTPLVRRD,not soluble
13,MGSDKIHHHHHHKEKSTVAVLPFTVHSADNIDYVKQGISDMLTSRIAVEGKISVASKDLVQEAIKGRTTRDLTPEEMNALGKKLNVDYIVSGSITKIGNSLSIDGKLMDLAAARSTVGIFAQTQGLDEVIPKINDFSQRIVQHITGSTPSDFSSPAMELPAPSSAAAVADKPPQRSRESEIISGMRTSRKGTFTSIINPDFIDAARPLDRKGFWMSQKFPTEFRGMAIGDVNGDKLQEVVVIDRSNLYVYQRKGDDFKLLQKIPGKTHDNYLAVDVADINQNGIMEIFVTNMNRNTLASFVTEWQDGKYIQTAKDLRLFLRVIEPSIAAPQLLGQGFGLDNPFNTPIHEVIWDGKHYRAATRMKIPEGLSVYGLTLDDLGMGGSEKVISLDDYDYIRIYQQTEKPLSRLNVFGGSDELIWKSDEVFGGSNTYVEHAGSTVPGDEVRRTYINLRILTYDINKDGKKELILVKNLSAVGRVLKNVKLFTSSEVYNLEWDGLGLLENWKTRKINGYVADYQFKDIDNDGQNEIVLALVLSTGATLQNRSAFVAYKLSPQQ,not soluble
14,MSEIIVYTQNDCPPCTFVKNYLNEHQIDFEERNINNQQYRNEMIDFDAFSTPFILLNGNPMYHVDLDEINKVLNIQD,not soluble
15,MSKRLYQQIETLWDYLQLHQQPNVADLILVLGSNDVRVAEHAAKLYHQGLAPYVLFSGGFGRFTQGVFNHNEAETFAAIAKDAGVPEHAILLETQSTNSGENLHFSHQLLVQQARPAKRILLVQKPYMERRAYATFMQQWPESVESVQVTSPAGSFFDYLTSELTSDFVLNAMLGDFERIRDYPALGFQITQPIPEPVMQAYQALLPLKVNLEMSLEHHHHHH,not soluble
16,DNKELQKLTEDISETYFKKPFRHQALFNDRLKTTGGRYLLTSHNIELNRKYLIEHGREELIGIIKHELCHYHLHLEGKGYKHRDRDFRMLLQQVNAPRFCTPLKKKAENKKTYMYICTTCGQQYIKKRAMNPDRYRCGKCRGKIKRI,not soluble
17,MFEELKTFVAVVEYKNFTKAGEYLNLSQPSVSKHIKNLENYFKVVLINRSIKQKTIFITESGQILYKRAKEILNLLNITYHDVSQVSDAITGHLKIGASLTIGEYILPNFLALFSKKYPDIDVEVFIKNTSIVSSHVKDYILDIGLIEGTCSSPSFIQEYFFEDKMVLALPYKSHLLKDFSFDKLQNQKWIVREDGSGTRDYLDMFLSVKEIIPKSMMVFGSNYAVKESVRNNLGITIVSNLVTSLPVLNNELSVIELGSSYNRHFSYIFPKDITLSKAATIFIEELKIFSNLNSI,not soluble

# Source: the DeepSol protein solubility set
